Test results as given in article PMC4894546 (Nature structural & molecular biology, 2016).

T1: NEIL2 (Homo sapiens, UniProt Q969S2 1-332)
T1 sequence: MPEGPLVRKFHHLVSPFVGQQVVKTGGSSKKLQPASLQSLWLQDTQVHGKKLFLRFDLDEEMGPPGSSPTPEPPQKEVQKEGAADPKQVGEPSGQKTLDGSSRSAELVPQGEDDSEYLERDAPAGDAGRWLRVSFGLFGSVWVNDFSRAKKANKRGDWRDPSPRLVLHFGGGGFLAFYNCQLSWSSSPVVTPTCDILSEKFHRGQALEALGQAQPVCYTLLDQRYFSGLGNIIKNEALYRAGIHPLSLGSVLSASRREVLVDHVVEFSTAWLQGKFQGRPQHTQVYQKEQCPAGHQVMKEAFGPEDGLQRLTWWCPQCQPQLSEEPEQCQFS

B1: human NEIL2 DNA glycosylase, recombinant (enzyme, UniProt Q969S2 1-332, looked up)
chain: T1 sequence
B2: 20mer_5fC duplex (5fC:G) (dsDNA)
DNA 1: CGCTAGGATCCGGCCCCGCC
DNA 2: GGCGGGGCCGGATCCTAGCG
modifications: 5-formylcytosine at position 11 of strand 1 (hemi-modified)
B3: 20mer_5caC duplex (5caC:G) (dsDNA)
DNA 1: CGCTAGGATCCGGCCCCGCC
DNA 2: GGCGGGGCCGGATCCTAGCG
modifications: 5-carboxylcytosine at position 11 of strand 1 (hemi-modified)
B4: 20mer_dC duplex (unmodified) (dsDNA)
DNA 1: CGCTAGGATCCGGCCCCGCC
DNA 2: GGCGGGGCCGGATCCTAGCG

Key:
[1] = molecular target: human thymine DNA glycosylase (TDG), recombinant (human, UniProt Q13569 1-410); experiment: MST
[2] = molecular target: T1, NEIL2; experiment: EMSA
[3] = molecular target: T2, NEIL1 (Homo sapiens, UniProt Q96FI4 1-390); experiment: EMSA
[4] = molecular target: TDG (Homo sapiens, UniProt Q13569 1-410); experiment: EMSA
[5] = molecular target: T2, NEIL1; experiment: EMSA; remark: listed apart in the source
[6] = molecular target: T1, NEIL2; experiment: EMSA; remark: listed apart in the source

T2 sequence (Q96FI4 whole entry): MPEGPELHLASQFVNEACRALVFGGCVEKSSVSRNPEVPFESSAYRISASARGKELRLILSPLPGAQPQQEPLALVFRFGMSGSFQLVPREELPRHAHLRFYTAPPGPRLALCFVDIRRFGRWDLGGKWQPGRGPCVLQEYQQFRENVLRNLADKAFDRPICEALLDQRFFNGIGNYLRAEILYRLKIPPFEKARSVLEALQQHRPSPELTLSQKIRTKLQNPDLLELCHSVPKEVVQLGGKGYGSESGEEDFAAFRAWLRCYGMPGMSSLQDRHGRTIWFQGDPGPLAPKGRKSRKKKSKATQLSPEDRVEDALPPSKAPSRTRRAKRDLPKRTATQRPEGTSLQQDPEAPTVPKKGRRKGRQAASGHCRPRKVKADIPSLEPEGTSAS
Chain of TDG (Q13569 whole entry): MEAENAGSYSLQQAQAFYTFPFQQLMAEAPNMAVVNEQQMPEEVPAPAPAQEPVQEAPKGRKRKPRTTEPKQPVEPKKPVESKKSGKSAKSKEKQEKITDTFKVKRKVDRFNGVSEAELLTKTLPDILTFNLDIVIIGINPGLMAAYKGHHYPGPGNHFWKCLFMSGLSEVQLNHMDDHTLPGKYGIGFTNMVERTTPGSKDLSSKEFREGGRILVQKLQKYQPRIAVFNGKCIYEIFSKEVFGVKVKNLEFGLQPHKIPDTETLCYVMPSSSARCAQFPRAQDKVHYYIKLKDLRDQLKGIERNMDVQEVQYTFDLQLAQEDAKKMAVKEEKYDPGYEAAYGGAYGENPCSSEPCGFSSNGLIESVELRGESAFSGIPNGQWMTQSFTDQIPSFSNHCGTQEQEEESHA
Chain of human thymine DNA glycosylase (TDG), recombinant (Q13569 whole entry): as above

Row | Binder | binding result [1] | binding result [2] | binding result [3] | binding result [4] | binding signal [5] | Kd [6] [nM]
1 | B1 | binds |  |  |  |  | 
2 | B2 |  | binds | binds | binds |  | 
3 | B3 |  | binds | binds | binds |  | 
4 | B4 |  |  |  |  | 3 fold lower affinity than AP site duplex | 27
